# In patent publication US20210330736A1 (UNIVERSITEIT VAN AMSTERDAM, priority 2018, published 2021):
# Tests used:
# [1] = biological target: T1, GUCY2C R792S mutant (Homo sapiens, UniProt P25092, R792S); assay: Th Ser40 phosphorylation in HEK cells co-transfected with Th and GUCY2C R792S gain-of-function mutant versus wt; format: cell-based; conditions: HEK co-transfected with Th and wt or R792S GUCY2C, guanylin treatment
# T1 construct: expressed in transfected cells; host or cells: HEK cells, co-transfected with Th
# Description: FIG. 5. […] (A) HEK cultures were treated with guanylin, in the presence or absence of IBMX. […] Unpaired Student's t-test (p-values: ****<0.0001, **<0.01, *<0.05). (B) HEK cells were co-transfected with Th and either the wt GUCY2C or a gain-of-function mutant (R792S). Ser40 phosphorylation was studied following guanylin treatment (G). […] Unpaired Student's t-test (p-values: ***<0.001, **<0.01).
# HEK cells were transfected using the calcium-phosphate method. 12-well plates were refreshed with 500 μL of growth medium before transfection. […] The plasmid mixture was taken into a final concentration of 250 mM CaCl2 in a total volume of 110 μL. A complementary tube was filled with 110 μL of HEPES-buffered saline 2X (HEBS 2X: 1.5 mM Na2HPO4, 50 mM HEPES pH 7.05, 280 mM NaCl). The tube with CaCl2 was pipetted drop-wise into the HEBS and mixed gently. After 60 seconds of incubation, 55 µL of the final mixture was added to each well. […]
# Up to 35 μL of sample was loaded in each slot and run in the presence of tris-glycine buffer and 0.1% SDS. […] After additional washings during 1 hour, blots were exposed to an enhanced chemiluminescence solution and the signal was detected using an Odyssey imager (LI-COR). […] For graph quantifications, ‘Fold Change’ represents the ratio P-Ser40/Total Th. Statistical comparisons between pair of groups correspond to unpaired Student's t-tests, as calculated with GraphPad Prism. […]
# [2] = biological target: GUCY2C (Homo sapiens, UniProt P25092); assay: GUCY2C ligand analysis in HEK-293 cells transfected with GUCY2C and Th (WES); format: cell-based; set-up: expressed in transfected cells; host or cells: HEK-293 cells transfected with GUCY2C and Th; conditions: 10 μM, Th Ser40 corrected for total Th, n=3
# Description: Potential GUCY2C ligands were tested in HEK-293 cells transfected with GUCY2C and Th and subsequently treated and analyzed by automated western (WES). Th Ser40 was corrected for total Th. Controls were set to 1. Significance is determined by two-tailed t-test on n=3. * p<0.05, **p<0.01, ***p<0.005, “”p<0.001. A) Guanylin control 10 μM. B) Peptides 1 to 5 in an amount of 10 μM. C) Peptides 6 to 11 in an amount of 10 μM.
# We designed novel peptides with different activities with respect to endogenous GUCY2C ligands (Table 3). The peptides were analyzed in Th and GUCY2C transfected HEK-293 cells and subsequently tested ex-vivo in mice striatal slices. […] We synthezised uroguanylin and heat stable toxin as controls for the synthezised peptides and they thus are from a different source than the commercially available uroguanylin and heat stable toxin. […] Possibly the effects of the peptides can differ depending on the area in the striatum which is stimulated.
# T1 sequence (P25092 24-1073 R792S): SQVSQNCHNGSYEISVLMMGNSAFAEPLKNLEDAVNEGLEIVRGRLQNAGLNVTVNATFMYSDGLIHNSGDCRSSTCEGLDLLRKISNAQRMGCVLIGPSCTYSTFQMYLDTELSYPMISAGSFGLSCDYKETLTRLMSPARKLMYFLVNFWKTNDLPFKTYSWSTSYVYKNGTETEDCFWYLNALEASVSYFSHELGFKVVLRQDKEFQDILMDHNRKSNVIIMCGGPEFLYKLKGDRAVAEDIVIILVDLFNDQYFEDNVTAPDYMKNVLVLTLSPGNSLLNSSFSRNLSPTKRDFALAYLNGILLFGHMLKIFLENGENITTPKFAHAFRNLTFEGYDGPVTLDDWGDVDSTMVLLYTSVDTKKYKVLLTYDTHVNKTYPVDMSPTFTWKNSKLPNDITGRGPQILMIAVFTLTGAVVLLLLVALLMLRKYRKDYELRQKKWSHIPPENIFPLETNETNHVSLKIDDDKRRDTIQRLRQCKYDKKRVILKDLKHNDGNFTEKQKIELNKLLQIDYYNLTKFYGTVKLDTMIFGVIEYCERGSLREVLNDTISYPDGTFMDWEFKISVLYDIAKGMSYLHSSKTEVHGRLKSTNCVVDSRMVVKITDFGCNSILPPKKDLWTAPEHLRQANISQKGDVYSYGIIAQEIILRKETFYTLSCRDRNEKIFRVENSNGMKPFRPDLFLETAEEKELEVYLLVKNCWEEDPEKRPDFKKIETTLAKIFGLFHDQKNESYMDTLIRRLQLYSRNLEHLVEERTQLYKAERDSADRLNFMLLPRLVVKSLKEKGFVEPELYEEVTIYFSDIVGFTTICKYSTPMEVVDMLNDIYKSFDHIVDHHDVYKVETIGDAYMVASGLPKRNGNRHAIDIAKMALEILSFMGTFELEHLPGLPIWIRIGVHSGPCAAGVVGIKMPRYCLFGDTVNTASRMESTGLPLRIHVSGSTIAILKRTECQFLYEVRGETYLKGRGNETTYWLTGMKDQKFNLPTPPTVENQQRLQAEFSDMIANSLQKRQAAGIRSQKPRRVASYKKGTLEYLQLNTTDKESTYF
# Chain of GUCY2C (P25092 24-1073): as the sequence (P25092 24-1073 R792S) above, with S769R counted along it
substance,measurement,setting,value
"guanylin: natural agonistic ligand of GUCY2C, 15 amino acid polypeptide; commercially available rat/mouse guanylin (Chemcruz) (PNTCEICAYAACTGC) [reference compound]",boost in Ser40 phosphorylation with R792S mutant compared to the wt receptor,[1],1.5 fold
same,"Ser40 phosphorylation in HEK-293 cells (significance, in words)",[2],"modest, but significant increase"
